{"source": "the supplement of paper PMC12042874", "note": "± gives the uncertainty stated by the source."}
{"experiment": "amyloid nucleation score (Sup35N fusion, yeast selection) (log enrichment); library NNK2; higher = more nucleation; inactive = no reads after selection", "method_in_brief": "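The nucleation score is the log enrichment of output over input reads, calculated with DiMSum and centred on the mode score of non-aggregating sequences. Sequences with under 100 input reads were excluded. Reads came from Illumina sequencing of plasmid inserts from psi-negative yeast expressing Sup35N fused to peptides of 20 random codons, induced 24 hours with 100 μM copper sulfate and grown 7 days at 30°C without adenine and uracil.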"}
{"substance": "LKGSRNRATSDKGWKEG", "amyloid nucleation score": "0.306 ± 0.8"}
{"substance": "LKISVCQLRLFKLGARTRGW", "amyloid nucleation score": "0.158 ± 0.8"}
{"substance": "LKLASSGVHCLLFSYCRMAE", "amyloid nucleation score": "0.69 ± 0.62"}
{"substance": "LKMKFSYDWGVDTILLCRKA", "amyloid nucleation score": "0.284 ± 1.1"}
{"substance": "LKQLKISRRADNYVTQCNLV", "amyloid nucleation score": "2.91 ± 0.11"}
{"substance": "LKVISTCLRWQHASLPCQ", "amyloid nucleation score": "0.822 ± 0.43"}
{"substance": "LKYCVH", "amyloid nucleation score": "-0.414 ± 0.61"}
{"substance": "LKYIPRWVGTSLLQRKLCDF", "amyloid nucleation score": "-0.711 ± 1.1"}
{"substance": "LLANPIELRRYGPTSLKVGI", "amyloid nucleation score": "-0.669 ± 0.55"}
{"substance": "LLARVYKTICCMNWGFRNE", "amyloid nucleation score": "2.06 ± 0.1"}
{"substance": "LLCNGVSGGQTNQDIFHMPC", "amyloid nucleation score": "inactive"}
{"substance": "LLCYRWGHVN", "amyloid nucleation score": "0.057 ± 0.76"}
{"substance": "LLFMKTFVVRP", "amyloid nucleation score": "0.494 ± 0.26"}
{"substance": "LLFRRMEKSRLSLERV", "amyloid nucleation score": "-0.257 ± 0.45"}
{"substance": "LLFSG", "amyloid nucleation score": "1.62 ± 0.32"}
{"substance": "LLFWLIRETRSLLSIYLVGT", "amyloid nucleation score": "0.198 ± 0.46"}
{"substance": "LLGESRGVDSLQTTLWRSRR", "amyloid nucleation score": "0.334 ± 0.24"}
{"substance": "LLGLHELSTS", "amyloid nucleation score": "0.334 ± 0.46"}
{"substance": "LLGVFTETKGNP", "amyloid nucleation score": "2.53 ± 0.11"}
{"substance": "LLHSWSYRCV", "amyloid nucleation score": "0.039 ± 0.77"}
{"substance": "LLIRYSGFFCAPALTIPCGS", "amyloid nucleation score": "5.12 ± 0.078"}
{"substance": "LLLCYS", "amyloid nucleation score": "-0.344 ± 0.27"}
{"substance": "LLLNLRQGMTKIPIGFILLI", "amyloid nucleation score": "-0.64 ± 0.36"}
{"substance": "LLLVHL", "amyloid nucleation score": "1.08 ± 0.68"}
{"substance": "LLNFGVLGSDLSINKCNFSS", "amyloid nucleation score": "1.89 ± 0.18"}
{"substance": "LLNGPVYFFNLWVHGAC", "amyloid nucleation score": "8.126 ± 0.052"}
{"substance": "LLNVIVVRIK", "amyloid nucleation score": "5.313 ± 0.03"}
{"substance": "LLPSSFVGGVNDVVELLSCG", "amyloid nucleation score": "0.092 ± 1.1"}
{"substance": "LLRLRECQV", "amyloid nucleation score": "2.73 ± 0.14"}
{"substance": "LLRMLSYR", "amyloid nucleation score": "0.138 ± 1.1"}
{"substance": "LLRVDRCCWDN", "amyloid nucleation score": "-0.011 ± 0.54"}
{"substance": "LLSSWNKSYKIRTIGIIGNV", "amyloid nucleation score": "-0.848 ± 0.25"}
{"substance": "LLTLFG", "amyloid nucleation score": "-0.087 ± 0.56"}
{"substance": "LLTYYFVLTLVPSMFTSFVF", "amyloid nucleation score": "1.49 ± 0.15"}
{"substance": "LLVDTNYSSQMASERFRTCG", "amyloid nucleation score": "-0.34 ± 0.37"}
{"substance": "LLVGIGMFEEQFQLYHI", "amyloid nucleation score": "-0.867 ± 0.29"}
{"substance": "LLVML", "amyloid nucleation score": "0.851 ± 0.46"}
{"substance": "LLVRLSVCLSSEPANWDTG", "amyloid nucleation score": "4.2 ± 0.073"}
{"substance": "LLVVIPYGSYWDV", "amyloid nucleation score": "-0.501 ± 0.78"}
{"substance": "LLWPVA", "amyloid nucleation score": "0.386 ± 0.46"}
{"substance": "LLYTTCSFGYLMQKFVL", "amyloid nucleation score": "1.58 ± 0.31"}
{"substance": "LMAFCKLQDRNKTPLSSALF", "amyloid nucleation score": "inactive"}
{"substance": "LMAHTSFVDFGVKN", "amyloid nucleation score": "-0.266 ± 0.23"}
{"substance": "LMASCHKQRTCRWHPRDRRY", "amyloid nucleation score": "0.298 ± 0.46"}
{"substance": "LMCVLTIL", "amyloid nucleation score": "1.25 ± 0.32"}
{"substance": "LMFARTMRSVRRFFYVGFHH", "amyloid nucleation score": "inactive"}
{"substance": "LMGIEVDGYYGCRCLTP", "amyloid nucleation score": "0.236 ± 1.1"}
{"substance": "LMGIILF", "amyloid nucleation score": "-1.49 ± 0.78"}
{"substance": "LMIAFKQRFIPS", "amyloid nucleation score": "1.12 ± 0.4"}
{"substance": "LMIGSEDAMNYGCSCNPYLF", "amyloid nucleation score": "-1.04 ± 0.33"}
{"substance": "LMKSIVGFMNESPLVIEFGR", "amyloid nucleation score": "-0.402 ± 0.27"}
{"substance": "LMLFDVKGRICGFDLCLIRR", "amyloid nucleation score": "0.381 ± 0.62"}
{"substance": "LMNGVGLFNQMGWVVERYLE", "amyloid nucleation score": "-0.357 ± 0.4"}
{"substance": "LMNLVVG", "amyloid nucleation score": "-0.701 ± 0.44"}
{"substance": "LMQVSA", "amyloid nucleation score": "0.829 ± 0.41"}
{"substance": "LMYTFVGCSINVCFGGSGCL", "amyloid nucleation score": "8.873 ± 0.034"}
{"substance": "LNFIGFK", "amyloid nucleation score": "0.102 ± 0.74"}
{"substance": "LNGLLTIRADVASKSIRLMH", "amyloid nucleation score": "0.004 ± 0.51"}
{"substance": "LNGYNYATCVLSPFFNE", "amyloid nucleation score": "-0.497 ± 0.76"}
{"substance": "LNLGREYVGLKD", "amyloid nucleation score": "0.246 ± 0.24"}
{"substance": "LNLLADNTLYGDSSYVGYLR", "amyloid nucleation score": "0.021 ± 0.4"}
{"substance": "LNLLDGWFL", "amyloid nucleation score": "-0.7 ± 0.48"}
{"substance": "LNMRT", "amyloid nucleation score": "-0.443 ± 0.64"}
{"substance": "LNMTSFAVKLEANYL", "amyloid nucleation score": "-0.565 ± 1.1"}
{"substance": "LNNHTPDLVWRSSVIGRCQK", "amyloid nucleation score": "0.47 ± 0.48"}
{"substance": "LNNYSSGFRGMIVFFVVVYV", "amyloid nucleation score": "-1.06 ± 0.61"}
{"substance": "LNQCWRI", "amyloid nucleation score": "inactive"}
{"substance": "LNRVGPLVILPIRHLQSTSL", "amyloid nucleation score": "0.65 ± 0.23"}
{"substance": "LNSDVVFIVPRYHNWFRSLR", "amyloid nucleation score": "inactive"}
{"substance": "LNSMF", "amyloid nucleation score": "0.056 ± 0.31"}
{"substance": "LNSQSVFKC", "amyloid nucleation score": "-0.967 ± 0.55"}
{"substance": "LNSYRPWCWY", "amyloid nucleation score": "inactive"}
{"substance": "LNTKTCVIPSTTCVTIPERE", "amyloid nucleation score": "0.242 ± 0.17"}
{"substance": "LNTLSESLEKNSGTLCWAKR", "amyloid nucleation score": "inactive"}
{"substance": "LNTSFLMV", "amyloid nucleation score": "-1.05 ± 0.49"}
{"substance": "LNVITSVTLRVDWRAVWRKY", "amyloid nucleation score": "0.134 ± 0.53"}
{"substance": "LPGLIGS", "amyloid nucleation score": "1.96 ± 0.26"}
{"substance": "LPGMNTIILD", "amyloid nucleation score": "2.17 ± 0.081"}
{"substance": "LPSVDQTATS", "amyloid nucleation score": "-0.481 ± 0.35"}
{"substance": "LPVREALMRKWMVQLLVFVS", "amyloid nucleation score": "2.05 ± 0.1"}
{"substance": "LPYHCNWHMLSYLTCGYCS", "amyloid nucleation score": "0.711 ± 0.6"}
{"substance": "LQAVPIIANCSSTRTANISL", "amyloid nucleation score": "inactive"}
{"substance": "LQSSKVWDFMLGLGVSGRVE", "amyloid nucleation score": "1.55 ± 0.14"}
{"substance": "LQVLSFSLWFMVRCMKLLPT", "amyloid nucleation score": "-0.286 ± 0.65"}
{"substance": "LQVVKKSNA", "amyloid nucleation score": "3.61 ± 0.061"}
{"substance": "LRDIYNFGDSHYFRNYSVTE", "amyloid nucleation score": "-0.132 ± 0.31"}
{"substance": "LRDKCAPCKCSRGSPLTSIC", "amyloid nucleation score": "-0.489 ± 0.63"}
